{"source": "paper PMC2940942", "about": "(Journal of Molecular Biology, 2009)", "binders": {"B1": {"name": "CD147^10mer peptide (CD147 residues 205–214) (peptide)", "peptide": "GSHLAALWPFLG"}, "B2": {"name": "CD147^22–269 (isoform 2 without the signal peptide) (receptor)", "chain": "AAGTVFTTVEDLGSKILLTCSLNDSATEVTGHRWLKGGVVLKEDALPGQKTEFKVDSDDQWGEYSCVFLPEPMGTANIQLHGPPRVKAVKSSEHINEGETAMLVCKSESVPPVTDWAWYKITDSEDKALMNGSESRFFVSSSQGRSELHIENLNMEADPGQYRCNGTSSKGSDQAIITLRVRSHLAALWPFLGIVAEVLVLVTIIFIYEKRRKPEDVLDDDDAGSAPLKSSGQHQNDKGKNVRQRNSS"}, "B3": {"name": "CD147^22–214 (domain or fragment)", "chain": "AAGTVFTTVEDLGSKILLTCSLNDSATEVTGHRWLKGGVVLKEDALPGQKTEFKVDSDDQWGEYSCVFLPEPMGTANIQLHGPPRVKAVKSSEHINEGETAMLVCKSESVPPVTDWAWYKITDSEDKALMNGSESRFFVSSSQGRSELHIENLNMEADPGQYRCNGTSSKGSDQAIITLRVRSHLAALWPFLG"}}, "key": {"cyclophilin A [1]": {"biological_target": "T1, cyclophilin A (UniProt P62937 1-165)", "test": "NMR titration"}, "SEC": {"biological_target": "the molecule itself", "test": "SEC"}, "cyclophilin A [2]": {"biological_target": "T1, cyclophilin A", "test": "NMR titration", "remark": "listed apart in the source"}}, "note": "Where two headings read alike, the source gives them in different places."}
{"binder": "B1", "values": [{"measurement": "Kd", "setting": "cyclophilin A [1]", "value": "4.2 ± 0.2", "unit": "mM"}]}
{"binder": "B2", "values": [{"measurement": "binding result", "setting": "SEC", "value": "binds"}]}
{"binder": "B3", "values": [{"measurement": "Kd", "setting": "cyclophilin A [2]", "value": "> 1", "unit": "mM"}]}
